Reference: publication doi:10.1101/2021.01.28.428652
pKd: −log10 of the molar value.

Experiments:
[1] = target: MIK2^ECD-6xHIS, extracellular leucine-rich repeat domain of MALE DISCOVERER 1-… RECEPTOR-LIKE KINASE 2 (Arabidopsis thaliana) (UniProt Q8VZG8); test: SPR
[2] = target: MIK2^ECD-6xHIS, extracellular leucine-rich repeat domain of MALE DISCOVERER 1-… RECEPTOR-LIKE KINASE 2 (Arabidopsis thaliana) (UniProt Q8VZG8); test: ITC

Chain of UniProt Q8VZG8 (Q8VZG8 44-707): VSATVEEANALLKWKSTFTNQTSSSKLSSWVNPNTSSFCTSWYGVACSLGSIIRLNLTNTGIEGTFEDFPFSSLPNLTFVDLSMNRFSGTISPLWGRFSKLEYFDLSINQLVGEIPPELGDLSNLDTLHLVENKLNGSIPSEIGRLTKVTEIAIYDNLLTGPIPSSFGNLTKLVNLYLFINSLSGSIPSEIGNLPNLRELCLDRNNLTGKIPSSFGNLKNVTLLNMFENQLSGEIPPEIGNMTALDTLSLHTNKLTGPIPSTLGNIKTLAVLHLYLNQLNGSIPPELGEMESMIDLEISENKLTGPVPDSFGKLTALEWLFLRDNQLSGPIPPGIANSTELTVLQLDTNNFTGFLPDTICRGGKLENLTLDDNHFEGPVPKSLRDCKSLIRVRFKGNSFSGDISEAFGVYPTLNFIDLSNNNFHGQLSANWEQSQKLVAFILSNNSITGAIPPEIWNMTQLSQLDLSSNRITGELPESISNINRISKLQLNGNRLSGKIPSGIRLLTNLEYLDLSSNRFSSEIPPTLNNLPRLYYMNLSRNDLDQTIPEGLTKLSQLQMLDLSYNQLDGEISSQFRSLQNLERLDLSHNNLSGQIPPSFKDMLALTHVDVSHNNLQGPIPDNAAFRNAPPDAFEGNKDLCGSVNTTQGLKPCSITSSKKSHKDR

Substance	pKd [1]	pKd [2]	stoichiometry N (ligand molecule per receptor molecule) [2]
SCOOP12 peptide (SERINE-RICH ENDOGENOUS PEPTIDE 12)	5.75	5.50	1
SCOOP12^SS/AA peptide	2.46	–	–
